Experimental findings from patent US20230094463A1, “ANTIBODIES THAT DISRUPT THE INTERACTION OF GAL3 AND INSULIN RECEPTOR OR INTEGRINS AND METHODS OF USE THEREOF” (TrueBinding, Inc., priority 2019, published 2023) are described below.

Test [1] concerns the target T1, Gal3 peptides (SEQ ID NOs: 3-26) (Homo sapiens, UniProt P17931).
T1 construct: a library of 24 amino acid peptides representing portions of Gal3; purchased LifeTein custom order
Put plainly: Gal3 peptide library binding ELISA (epitope mapping). Particulars: for binding to Gal3 Peptide 4: Peptide 4 (SEQ ID NO: 6), amino acids 31-50 of Gal3; for binding to Gal3 Peptide 6: Peptide 6 (SEQ ID NO: 8); for binding to Gal3 Peptide 1: Peptide 1 (SEQ ID NO: 3), amino acids 1-20 of Gal3; for binding to Gal3 Peptide 7: Peptide 7 (SEQ ID NO: 9), amino acids 61-80 of Gal3. The procedure:
To identify the epitopes to which Gal3 antibodies with and without Gal3-INSR blocking activity bound, a library of 24 amino acid peptides representing portions of Gal3, depicted in FIG. 27, was produced and the ability of each peptide to bind Gal3 antibodies was evaluated by ELISA. At least 2 μg/ml of hGal3 peptide in 50 μl of PBS or 0.1 μg/ml of full-length human Gal3 protein (GenScript) and human Galectin-3 protein (Acro Biosystems, GA3-H5129) were diluted in PBS (Corning, 21-030-CM) to concentrations of at least 2 μg/ml or 0.1 μg/ml, respectively, and added to the wells of a 96-well ELISA plate (Thermo Fisher, 44-2404-21). After incubating the plate at 4° C. overnight, the plate was washed three times with PBST (PBS with 0.05% Tween 20 [VWR, 0777]). The plate was then blocked for an hour with 2% BSA (EMD Millipore, 126609) in PBST at room temperature with gentle rocking. Thereafter, the 2% BSA in PBST was discarded and human Galectin-3 hybridoma supernatants or antibodies were diluted in 2% BSA in PBST to concentrations of at least 0.1 μg/ml and added to the wells. The plate was incubated for an hour at room temperature with gentle rocking and then washed three times with PBST. Afterwards, Goat Anti-Mouse IgG-HRP (Jackson ImmunoResearch, 115-036-1461) or Goat Anti-Rat IgG HRP (Abcam, ab205720) diluted in 2% BSA in PBST (1:4000) were added to the wells. The plate was incubated for 30 minutes to 1 hour at room temperature with gentle rocking and then washed three times with PBST. TMB substrate (Thermo Scientific, 34029) was then added to each well. The reaction was stopped with 1M HCl (JT Baker, 5620-02) and read using a plate reader (Molecular Devices) at absorbance of 450 nm.
Human Gal3 peptides (LifeTein, custom order) and human Gal3 proteins (R&D Systems, 8259-GA; TrueBinding, QCB200349) were diluted in PBS (Corning, 21-030-CM) to concentrations of at least 100 μg/mL (peptides) or 1 μg/mL (proteins), and added to the wells of several 96-well ELISA plates (Thermo Fisher, 44-2404-21). After incubating the plates at 4° C. overnight, the plates were washed three times with PBST (PBS with 0.05% Tween 20 [VWR, 0777]). The plates were then blocked for an hour with 2% BSA (EMD Millipore, 126609) in PBST at room temperature with gentle rocking. Thereafter, the 2% BSA in PBST was discarded and Gal3-binding antibodies (reformatted hIgG4 [S228P]) were diluted in 2% BSA in PBST to concentrations of 5 μg/mL and added to the wells. The plates were incubated for an hour at room temperature with gentle rocking and then washed three times with PBST. Afterwards, Peroxidase AffiniPure F(ab′)2 Fragment Goat Anti-Human IgG (H+L) polyclonal antibody (Jackson ImmunoResearch, 109-036-003), was diluted in 2% BSA in PBST (1:4000) and added to the wells. The plates were incubated for 1 hour at room temperature with gentle rocking and then washed three times with PBST. TMB substrate (Thermo Scientific, 34029) was then added to each well. The reaction was stopped with 1M HCl (JT Baker, 5620-02) and read using a plate reader (Molecular Devices) at absorbance of 450 nm.

The target of the next test is T2, human Gal3 (Homo sapiens, UniProt P17931).
T2 construct: His; purchased AcroBio GA3-H5129
T2 sequence (P17931 whole entry): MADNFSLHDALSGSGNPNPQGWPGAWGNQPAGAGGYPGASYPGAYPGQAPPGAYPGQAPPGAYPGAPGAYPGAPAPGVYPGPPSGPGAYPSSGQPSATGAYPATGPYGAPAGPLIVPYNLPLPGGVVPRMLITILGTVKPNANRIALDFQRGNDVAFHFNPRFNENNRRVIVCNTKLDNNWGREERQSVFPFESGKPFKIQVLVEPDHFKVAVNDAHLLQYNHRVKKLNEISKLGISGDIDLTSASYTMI
The experiment in a line: Antibody binning assays (competition for binding to Gal3). To be noted: binning per Examples 3 and 18. The protocol: To determine whether Gal3-binding antibodies with Gal3-INSR blocking activity bind to the same or overlapping regions of the Gal3 molecule, antibody binning assays were performed to assess the ability of antibodies to simultaneously bind Gal3. Amine-reactive probes were loaded onto a Gator biosensor (Probe Life, Palo Alto, Calif.), equilibrated in dH20 for 60 seconds, dipped into 100 μl EDC 0.2M/NHS 0.05M activation buffer for 30 seconds, then dipped into a solution of […] human Gal3-His in 10 mM NaOAc buffer, pH 5 until binding was saturated, and quenched in 1 M ethanolamine pH 8.5 for 300 seconds. Following Gal3-His loading, tips were dipped in 20 μg/mL saturating antibody, then successively dipped into 5 μg/mL competing antibody.
The epitope binning assay was done in a sandwich format on the high-throughput SPR-based Carterra LSA unit (CarterraBio, Salt Lake City, Utah). First, the purified antibodies were diluted to 10 μg/ml concentration in 10 mM NaOAc (pH 5.0) and then were covalently coupled via amine group to HC200M chip activated by EDC and S-NHS to immobilize antibodies to different positions of a 384-spot array. One hundred thirty-eight binning cycles were run on the array of immobilized antibodies. In each cycle, first, human Gal3 (AcroBio GA3-H5129) was injected over the entire array to bind to different antibodies (primary antibody), followed by one antibody (secondary antibody) selected among the panel of 150 anti-GAL3 antibodies tested. At the end of each cycle, the array was regenerated by 10 mM Glycine (pH 2.0) to remove bound antigen and secondary antibody from the array. The data analysis was done using the Epitope software by CarterraBio.

Substitutions are numbered along the chain they refer to. Names may count otherwise.

B1: 13A12.2E5: anti-Gal3 monoclonal antibody (antibody, V domains shown)
VH: QIQLVQSGPELKKPGETVKISCKTSGYKFKTYVMSWVKQAPGKALKWMGWINTYSGVPTYADDFKGRFAFSLETSASTAYLEIINLKNEDTATYFCARDGNYGDPMDYWGQGTSVTVSS
VL: DVVMTQTPLTLSVAIGQPASISCKSSQSLLYTNGKTYLNWLLQRPGQSPKRLIYLLSKLDSGVPDRFSASGSGTDFTLKISRVEAEDLGVYYCLQSTHFPLTFGAGTKLEMK
In the case of B1, the “binding to Gal3 Peptide 4” value in test [1] is reported as “bind”. For the same molecule, in test [1] (amino acids 51-70 of Gal3), the “binding to Gal3 Peptide 6” value is “bind and bound”.

B2: 19B5.2E6: anti-Gal3 monoclonal antibody (antibody, V domains shown)
VH: QIQLVQSGPELKKPGETVKISCKASGYTFTTYAMSWVKQAPGKGLKWMGWINTYSGVPTYADDLKGRFAFSLETSASTAYLQINNLKNEDTATYFCARGPYAMDYWGQGTSVTVSS
VL: DIQMTQTTSSLSASLGDRVTISCSASQGINNYLNWYQQKPDGTVKLLIYYASSLHSGVPSRFSGSGSGTDYSLTISNLEPEDIATYYCQQYSQVPYTFGSGTKLEIK
With B2, in test [1], the “binding to Gal3 Peptide 1” value is “bind and bound”; the “binding to Gal3 Peptide 7” value was “bind and bound”. For the same molecule, the “epitope bin (competitive binding to Gal3)” value (“epitope bin” for short) in the test with human Gal3 was “bin 3”.

B3: 15F10.2D6: anti-Gal3 monoclonal antibody (antibody, V domains shown)
VH: EVQLVESGGGLVKPGGSLKLSCAASGFAFSSYAMSWVRQTPEKRLEWVATISDGGVYTYYTDHVKGRFTISRDNAEDNLYLQMSHLKSEDTAMYYCVRDGGYWGQGTTLTVSS
VL: DVLMTQTPLSLPVSLGDQASISCRSSQSIVHNNGNTYLEWYLQKPGQSPKLLIYKVSNRFSGVPDRFSGSGSGTDFTLKISRVEAEDLGVYYCFQGSHVPLTFGGGTKLELK
As to B3, the “binding to Gal3 Peptide 2” value in test [1] (Peptide 2 (SEQ ID NO: 4)) was “bind”. The “binding to Gal3 Peptide 3” value in test [1] (Peptide 3 (SEQ ID NO: 5)) was “bind”. In addition, in test [1], the “binding to Gal3 Peptide 4” value is listed as “bind”; the “binding to Gal3 Peptide 7” value was “bind and bound”. The “epitope bin” value with human Gal3 is “bin 8”.

B4: TB006: anti-Gal3 antibody (antibody, V domains shown)
VH: QVQLVQSGAEVKKPGASVKVSCKASGYSFTNYYMHWVRQAPGQRLEWMGWIYPGSGNTNYNEKFQGRVTITADTSASTAYMELSSLRSEDTAVYYCSTAPGGFDVWGQGTTVTVSS
VL: DIVMTQTPLSLSVTPGQPASISCKSSKSLLHSDGITYLYWYLQKPGQSPQLLIYRMSNLASGVPDRFSGSGSGTDFTLKISRVEAEDVGVYYCAQMLEFPLTFGQGTKLEIK
B4: the “binding to Gal3 Peptide 6” value in test [1] (amino acids 51-70 of Gal3, listed as IMT006 (TB006)) was “bind and bound”.

B5: F847C.10B9: anti-Gal3 antibody (antibody, V domains shown)
VH: QIQLVQSGPEVKKPGETVKISCKASGYIFTNYGMNWVKQAPGKGLKWMGWINTYTGEPTYTDDFKGRFAFSLETSASTAYLQINNLKNEDTATYFCAKFGNYVGAMDYWGQGTSVTVSS
VL: DIRMTQSPSSLSASLGDTITITCHASQNINVWLSWYQQKPGNIPKLLIYKASNLHTGVPSRFSGSGSGTGFTLTISSLQPEDIATYYCQQGQSYPYTFGGGTKLELK
In the case of B5, in test [1], the “binding to Gal3 Peptide 1” value is “bind and bound”; the “binding to Gal3 Peptide 7” value is “bind and bound”.

B6: F847C.12F12: anti-Gal3 antibody (antibody, V domains shown)
VH: B5 VH with V11L, I28T, T61V, Q82R
VL: B5 VL with R3Q, M4V, T5I
Take B6: in test [1], the “binding to Gal3 Peptide 1” value is “bind and bound”; the “binding to Gal3 Peptide 7” value is “bind and bound”.

B7: F847C.26F5: anti-Gal3 antibody (antibody, V domains shown)
VH: B5 VH
VL: B5 VL with D1E, R3K, T5N
With B7, in test [1], the “binding to Gal3 Peptide 1” value is “bind and bound”; the “binding to Gal3 Peptide 7” value is “bind and bound”.

B8: F846C.1B2: anti-Gal3 antibody (antibody, V domains shown)
VH: QIQLVQSGPELKKPGETVKISCKASGYTFTNYGMNWVKQAPGKGLKWMGWINTYTGEPSYADDFKGRFAFSLETSASTAYLQINNLKNEDMATYFCARWGGYAGDYYAMDFWGQGTSVTVSS
VL: NIWLTQSPSSLAVSAGEMVTMTCKSSQSVLYSSNQKNYLAWYQQKPGQSPKLLIYWASTRESGVPDRFTGSGSGTDFSLTISSVQAEDLAVYYCHQYLSSLTFGAGTKLELK
As to B8, the “binding to Gal3 Peptide 5” value in test [1] (Peptide 5 (SEQ ID NO: 7)) is “bind”. In addition, the “binding to Gal3 Peptide 6” value in test [1] (amino acids 51-70 of Gal3) was “bind and bound”. Moreover, the “binding to Gal3 Peptide 7” value in test [1] was “bind and bound”.

B9: F846C.2H3: anti-Gal3 antibody (antibody, V domains shown)
VH: B8 VH with A103D, F111Y
VL: B8 VL with W3M, L4M, M18K, T22S, S78T, A86P
B9: the “binding to Gal3 Peptide 6” value in test [1] (amino acids 51-70 of Gal3) was “bind and bound”.

B10: F846C.1H5: anti-Gal3 antibody (antibody, V domains shown)
VH: EVQLLESGGGLVKPGGSLKLSCAASGFTFSSYAMSWVRQTPEKRLEWVASISSGGDTYYPDSVKGRFTISRDNARNILYLQMSSLRSEDTAMYYCASYGNSLFDYWGQGTTLTVSS
VL: DVVMTQTPLSLPVSLGDQASISCRSSQSLVHNSGNTYLHWYLQRPGQSPNLLIYKVSNRFSGVPDRFSGSGSGTDFTLKISRVAAEDLGVYFCSQSTHVPPTFGGGTKLEIK
Regarding B10, the “binding to Gal3 Peptide 1” value in test [1] was “bind and bound”.

B11: 20D11.2C6: anti-Gal3 monoclonal antibody (antibody, V domains shown)
VH: EVQLQQSGPELVKPGASVKISCKASGYTFTDFYINWVKQSHGKSLEWIGDINPKNGGINYNPKFKIKATLTVDKSSSTSYMDLRGLTSEDSAVYYCTSGYGFPYWGQGTLVTVSA
VL: DIQMNQSPSSLSASLGDTITITCRASQNIYIWLSWYQQKPGNIPKLLIYKASNLHTGVPSRFSGSGSGTDFTLTISTLQPEDIATYFCLQGQSYPLTFGAGTKLEMK
Take B11: in test [1], the “binding to Gal3 Peptide 1” value is “bind and bound”; the “binding to Gal3 Peptide 7” value was “bind and bound”. Also, the “binding to Gal3 Peptide 6” value in test [1] (amino acids 51-70 of Gal3) was “bound”. Further, the “epitope bin” value in the test with human Gal3 is recorded as “bins 5”.
